B1: Prox-ER6 (dsDNA)
DNA 1: ATATGAACTCAAAGGAGGTCAGTG
DNA 2: CACTGACCTCCTTTGAGTTCATAT
B2: XREM-DR3-1 (dsDNA)
DNA 1: GAATGAACTTGCTGACCCTCT
DNA 2: AGAGGGTCAGCAAGTTCATTC
B3: XREM-DR6 (dsDNA)
DNA 1: AGGTGAATCACAAGCTGAACTTCT
DNA 2: AGAAGTTCAGCTTGTGATTCACCT
B4: XREM-DR3-2 (dsDNA)
DNA 1: ATATATTGTTATTGAACTATC
DNA 2: GATAGTTCAATAACAATATAT

Tests used:
Details in all cases: label: 32P
[1] = biological target: T1, hPXR-RXR heterodimer (human pregnane X receptor / retinoid X receptor) (UniProt O75469;P19793 O75469:1-434,P19793:1-462); assay: EMSA; efficient gel shift
Procedure: (§1) The hPXR is an orphan nuclear receptor, belonging to the nuclear receptor gene superfamily. […] In order to evaluate the affinity of these putative response elements for HPXR-RXR heterodimers, electromobility shift assays (EMSA) were performed using with in-vitro transcribed/translated hPXR and RXR.

[2] = biological target: T1, hPXR-RXR heterodimer (human pregnane X …); assay: EMSA; no shift apparent; mutation of the site lowers reporter to 52% of wild type
Procedure: as §1

[3] = biological target: T1, hPXR-RXR heterodimer (human pregnane X …); assay: EMSA; no shift apparent; described as functionally important by mutagenesis
Procedure: as §1

T1 sequence (O75469 whole entry, chain 1 of 2): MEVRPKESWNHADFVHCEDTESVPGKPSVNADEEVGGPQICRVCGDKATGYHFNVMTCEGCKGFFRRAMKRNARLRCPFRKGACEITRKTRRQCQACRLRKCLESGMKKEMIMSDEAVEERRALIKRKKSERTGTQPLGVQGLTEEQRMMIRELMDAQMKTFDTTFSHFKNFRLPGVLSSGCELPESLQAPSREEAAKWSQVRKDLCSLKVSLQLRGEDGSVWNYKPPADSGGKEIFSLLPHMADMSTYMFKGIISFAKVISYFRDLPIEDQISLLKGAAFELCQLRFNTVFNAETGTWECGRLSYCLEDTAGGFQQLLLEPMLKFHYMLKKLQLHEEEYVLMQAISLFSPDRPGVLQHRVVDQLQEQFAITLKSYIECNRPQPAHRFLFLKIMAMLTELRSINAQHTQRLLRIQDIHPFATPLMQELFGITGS
T1 sequence (P19793 whole entry, chain 2 of 2): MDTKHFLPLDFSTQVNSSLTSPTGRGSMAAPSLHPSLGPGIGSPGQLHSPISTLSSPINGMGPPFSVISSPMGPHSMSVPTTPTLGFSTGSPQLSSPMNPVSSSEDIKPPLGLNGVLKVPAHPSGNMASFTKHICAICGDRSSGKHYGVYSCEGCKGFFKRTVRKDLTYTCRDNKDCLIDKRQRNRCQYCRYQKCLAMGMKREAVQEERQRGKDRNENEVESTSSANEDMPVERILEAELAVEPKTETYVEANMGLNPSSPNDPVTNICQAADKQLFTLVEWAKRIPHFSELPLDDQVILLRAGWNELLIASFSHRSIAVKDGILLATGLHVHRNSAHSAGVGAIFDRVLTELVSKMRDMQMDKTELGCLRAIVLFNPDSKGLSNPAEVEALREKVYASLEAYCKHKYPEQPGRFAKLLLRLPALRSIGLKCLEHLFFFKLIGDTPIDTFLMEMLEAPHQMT

Binder | binding result [1] | also measured
B1 | binds | –
B2 | binds | –
B3 | – | binding result [2]: no binding
B4 | – | binding result [3]: no binding
